Assay results reported in patent publication US20210063414A1, “METHODS FOR PREVENTING AND/OR TREATING BONE LOSS CONDITIONS BY MODULATING IRISIN” (Dana-Farber Cancer Institute, Inc., priority 2018, published 2021).

What was measured:
integrin αV/β1 = molecular target: T1, integrin αV/β1 (Homo sapiens, UniProt P05556+P06756); test: FAK phosphorylation in HEK293T cells with forced expression of integrin αV/β1; type: cell-based
T1 construct: expressed in transfected cells; host or cells: HEK293T
Method: 100 nM irisin was incubated with 5 nM indicated his-tag integrins followed by immunoprecipitation using Ni-NTA agaroses. Precipitated integrins and co-precipitated irisin were analyzed by immunoblot analysis. […] HEK293T cells were seeded and incubated until 50% cell density. The cells were transfected with 0.1 μg plasmids of indicated integrins. After 48 hours, the cells were re-split to indicated dose of vitronectin-coated plates. Cells were incubated with culture medium for 3 hours. Cells were lysed to detect the indicated protein level using immunoblot analysis. FIG. 15C and FIG. 15D show the immunoblot data. Cells were treated and analyzed as FIG. 14B except using plasmids encoding integrin α5/β1 or integrin α11/β1 (FIG. 15C) integrin αV/β1(FIG. 15D).
HEK293T cells were set up for experiments at 1×10^5 cells per well in 6 well plate. On day 2, cells were transiently transfected with the indicated plasmids with FuGENE® 6 reagent (Roche Applied Science) according to the manufacturer's protocol. […]
Cells were harvested in RIPA buffer containing protease-inhibitor cocktail and phosphataseinhibitor cocktail. […] Protein levels were analyzed via western blot using indicated antibody. […] Protein levels were analyzed using western blot against indicated antibody.

sclerostin = test: Irisin injection in mice: sclerostin mRNA in osteocyte-enriched bones and plasma sclerostin protein (ELISA); type: in vivo; conditions: irisin IP daily for 6 days
Method: 8 weeks old mice were injected daily with indicated dose of irisin for 6 days. […] were collected and treated with collagenase to yield osteocyte-enriched bones. Sclerostin mRNA level from osteocyte-enriched tibia was analyzed by qPCR (FIG. 7A). Cyclophilin was used as a house-keeping gene. Plasma was collected to analyze the circulating sclerostin protein level by ELISA assay (FIG. 7B). Data are represented as mean±SEM. For FIG. 7A and FIG. 7B, n=5 animals/group. * indicates p<0.05, and *** indicates p<0.001.
Certain materials and methods were used to generate the results described herein. For example, the data shown in FIG. 1A resulted from MLO-Y4 (an osteocyte-like cell line) cells treated with the indicated concentration of irisin and hydrogen peroxide for 4 hours. Cells were stained with Hoechst 33342 (ThermoFisher Scientific, catalog number H3570) and Eth-D1 (ThermoFisher Scientific, catalog number E1169) and analyzed to determine the percentage of cell death using ImageJ. […] Co-precipitated irisin was analyzed by immunoblot analysis against flag tag (Sigma Aldrich, catalog number A8592). The data shown in FIGS. 5A and 5B were generated from MLO-Y4 cells treated and analyzed as in the experiments used to generate the data shown in FIG. 2D, except that pre-treatment of 100 nM RGDS (FIG. 5A) or echistatin (R & D Systems Inc., catalog number 3202/100U) (FIG. 5B) for 10 minutes was performed before irisin treatment. […] RNAs were extracted from the cells and the sclerostin mRNA level was analyzed by qPCR (FIG. 6A) or treated and analyzed as in (FIG. 6A), except that pre-treatment of 10 μM RGDS, RGDyK (Selleck, catalog number S7844), or echistatin was performed for 10 minutes before irisin treatment. […] Sclerostin mRNA level was analyzed by qPCR (FIG. 7A). […] Epididymal fats were collected, RNAs were extracted from the tissues, and mRNA levels of the indicated genes were analyzed by qPCR. […]

T1 sequence (P06756 31-889 limits assumed): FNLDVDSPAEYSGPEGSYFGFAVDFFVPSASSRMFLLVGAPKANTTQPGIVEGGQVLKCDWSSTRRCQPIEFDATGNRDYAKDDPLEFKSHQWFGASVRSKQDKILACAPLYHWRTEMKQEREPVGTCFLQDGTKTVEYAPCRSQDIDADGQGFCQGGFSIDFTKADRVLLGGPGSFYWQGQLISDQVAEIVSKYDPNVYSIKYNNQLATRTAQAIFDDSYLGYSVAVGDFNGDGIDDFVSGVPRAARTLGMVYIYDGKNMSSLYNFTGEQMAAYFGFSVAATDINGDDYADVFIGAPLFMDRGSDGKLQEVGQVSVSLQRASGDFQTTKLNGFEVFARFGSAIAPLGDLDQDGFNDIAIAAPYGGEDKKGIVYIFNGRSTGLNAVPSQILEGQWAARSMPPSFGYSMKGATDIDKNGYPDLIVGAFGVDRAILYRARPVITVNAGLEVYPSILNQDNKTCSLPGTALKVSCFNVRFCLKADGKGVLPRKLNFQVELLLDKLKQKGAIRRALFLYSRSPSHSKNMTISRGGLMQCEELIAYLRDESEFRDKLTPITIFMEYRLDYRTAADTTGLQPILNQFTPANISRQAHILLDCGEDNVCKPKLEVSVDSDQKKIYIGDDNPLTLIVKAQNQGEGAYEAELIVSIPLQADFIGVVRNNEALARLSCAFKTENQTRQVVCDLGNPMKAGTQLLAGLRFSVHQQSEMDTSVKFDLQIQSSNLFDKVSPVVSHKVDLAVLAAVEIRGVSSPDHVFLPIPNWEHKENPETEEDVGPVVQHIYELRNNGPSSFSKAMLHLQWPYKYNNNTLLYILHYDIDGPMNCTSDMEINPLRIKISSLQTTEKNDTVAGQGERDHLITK
T1 sequence (P06756 891-1048 partner limits assumed): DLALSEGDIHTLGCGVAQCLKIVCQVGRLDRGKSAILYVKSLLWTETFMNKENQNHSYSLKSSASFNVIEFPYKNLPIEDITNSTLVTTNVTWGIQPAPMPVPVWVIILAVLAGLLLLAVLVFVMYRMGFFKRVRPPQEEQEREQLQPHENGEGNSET
T1 sequence (P05556 21-798): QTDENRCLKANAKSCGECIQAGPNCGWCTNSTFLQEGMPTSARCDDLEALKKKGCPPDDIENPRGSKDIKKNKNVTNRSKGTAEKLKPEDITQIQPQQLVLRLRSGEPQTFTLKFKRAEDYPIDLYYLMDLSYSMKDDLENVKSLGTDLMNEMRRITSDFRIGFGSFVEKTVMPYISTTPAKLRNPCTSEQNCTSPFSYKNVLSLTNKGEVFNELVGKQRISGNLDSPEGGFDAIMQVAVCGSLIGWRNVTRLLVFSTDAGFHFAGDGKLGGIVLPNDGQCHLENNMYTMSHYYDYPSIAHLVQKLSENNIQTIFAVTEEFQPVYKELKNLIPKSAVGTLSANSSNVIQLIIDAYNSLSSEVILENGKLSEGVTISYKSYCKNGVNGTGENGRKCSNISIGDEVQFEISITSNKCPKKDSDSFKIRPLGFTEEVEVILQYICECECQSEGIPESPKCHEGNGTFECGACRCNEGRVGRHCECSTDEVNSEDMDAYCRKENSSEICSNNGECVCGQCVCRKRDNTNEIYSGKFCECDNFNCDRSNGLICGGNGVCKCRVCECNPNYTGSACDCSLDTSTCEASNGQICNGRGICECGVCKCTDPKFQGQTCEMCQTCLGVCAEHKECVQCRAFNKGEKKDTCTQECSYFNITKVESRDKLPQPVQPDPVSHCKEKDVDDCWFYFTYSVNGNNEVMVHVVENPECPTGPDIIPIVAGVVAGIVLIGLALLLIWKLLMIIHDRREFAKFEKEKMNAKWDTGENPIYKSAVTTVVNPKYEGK

B1: irisin: secreted cleaved form of FNDC5; recombinant human/mouse irisin with C-terminal his tag produced in HEK293 cells (protein)
chain: DSPSAPVNVTVRHLKANSAVVSWDVLEDEVVIGFAISQQKKDVRMLRFIQEVNTTTRSCALWDLEEDTEYIVHVQAISIQGQSPASEPVLFKTPREAEKMASKNKDEVTMKE
modifications: left off: small tags and cut ends
notes: secreted cleaved form of FNDC5; recombinant human/mouse irisin with C-terminal his tag produced in HEK293 cells
phosphorylation of FAK upon irisin treatment (integrin αV/β1): increased FAK phosphorylation | sclerostin mRNA in osteocyte-enriched bones (sclerostin): stimulated sclerostin mRNA | circulating (plasma) sclerostin protein (sclerostin; ELISA): significant increase | sclerostin mRNA in osteocyte-enriched bones (sclerostin; listed as recombinant irisin): raised the sclerostin mRNA level
